Data taken from US8754031B2, “Use of prolactin receptor antagonists in combination with an agent that inactivates the HER2/neu signaling pathway” (Oncolix, Inc., priority 2004, dated 2014).

Experiments:
T47D cells = test: Cell proliferation assay (cell counting), comparison with estrogen and tamoxifen; assay type: cell-based, human
Procedure: Cell proliferation assays. hPRLA was tested for its ability to inhibit breast cancer cell proliferation in tissue culture. The human breast cancer cells were grown in corresponding culture media according to ATCC recommendations. Cells were maintained at 37° C. in a humidified atmosphere of 5% CO2 in air. The assay conditions were essentially as described by Ginsburg and Vonderharr (Cancer Res., 55:2591-2595 (1995)). For individual growth experiments, cells were plated in 12 well culture plates at a density of approximately 2×10^4/ml, 1 ml/well. Cells were then allowed to attach for one day (T-47D, MCF-7, HTB19, and HTB20 cells, except for HTB 123, which is a suspension cells), then the overlying media was removed and changed to serum-free conditions with media containing ITS (insulin-transferring-selenium-BSA-linoleic acid culture supplement; Collaborative Research Bedford, Mass.). Varying concentrations of hPRL alone or in combination with hPRLA were introduced. After an additional three days in culture, cells were harvested after brief trypsinization and counted in a cell counter.
For certain experiments, a mixed cell culture assay was used. In this assay, breast cancer cells were co-cultured with expressor cells which had been transfected with nucleic acid encoding PRL or a PRL variant and expressing those recombinant proteins. By varying the number of expressor cells, the amount of PRL or PRL variant present in the mixed cell culture was increased or decreased. A fixed number of breast cancer cells (T47D) were added to wells of a multi-well cell culture plate. In certain wells, which served as a control, no expresser cells were added. Then, increasing numbers of expresser cells (transfected L cells expressing either HPRL (L-PRL) or hPRLA (L-PRLA)) were added to breast cancer cell-containing wells to create mixed cultures. The same numbers of expressor cells were cultured in parallel (without T47D cells) to serve as controls. After culturing under standard conditions for a period of time, the number of cells present in the wells was counted, and the number of L cells in the corresponding control culture was subtracted. The resulting number could then be compared to the number of T47D cells in the T47D control culture to evaluate the effects of the recombinant product on breast cancer cell proliferation.

[1] = system: human breast cancer cell lines MDA-MB-134, T-47D, BT-474 and MCF-7; test: TUNEL assay, apoptosis by DNA fragmentation in breast cancer cell lines; assay type: cell-based
Procedure: The human breast cancer cell lines MDA-MB-134, T-47D, BT-474 and MCF-7 were obtained from ATCC. These breast cancer cell lines were chosen based on their PRLR levels. The cell line T-47D had the highest PRLR level followed by MDA-MB-134, BT-474, MCF-7 in decreasing order of PRLR levels (Peirce S and Chen W Y., 2001, J. Endocrinol. 171:R1-4).
T-47D cells obtained from ATCC were grown in RPMI 1640 (phenol red free), supplemented with 10% FBS (GIBCO BRL). BT-474 cells were grown in RPMI 1640 medium (phenol red free) supplemented with 10% FBS and ATCC recommended supplements. MCF-7 cells were grown in DMEM medium (phenol red free), supplemented with 10% FBS. The cells were grown at 37° C. in a humid atmosphere in the presence of 5% CO2. The MDA-MB-134 cells were grown in Leibovitz's L-15 medium supplemented with 20% FBS and grown in CO2 free atmosphere. The breast cancer cells were trypsinized (0.02% Trypsin—EDTA) and grown in their respective media (phenol red free) supplemented with 10% CSS (Charcoal stripped serum) for a week. Subsequently the cells were trypsinized again and plated onto an 8 chambered slide system (Lab Tek II) at a confluence of 60-70% per chamber. The next day treatments were performed on the breast cancer cells using their respective media (phenol red free), supplemented with 1% CSS. The MDA-MB-134 VI cells were grown in phenol red containing medium, but with the same serum conditions as the other breast cancer cells.
(§1) Terminal deoxynucleotidyl transferase mediated dUTP nick end labeling (TUNEL) assay. Nicks of the fragmented DNA are labeled at their 3-OH ends. The fluorescein-labeled dUTP is incorporated at the 3-OH ends by using the enzyme terminal deoxynucleotidyl transferase. After the assigned period of treatment the chambers were dismantled as per the manufacturer's instructions and the TUNEL assay (Apoptosis detection system, Fluorescein-Promega) was performed as per the manufacturer's instructions. The slide was examined under a FITC filter using an Olympus IX 70 microscope system.

HER2 = HER2 phosphorylation, immunoprecipitation and Western blot (Example 11); assay type: cell-based, human; conditions: multiple breast cancer cells
Description: Human PRL signals via cell surface specific receptors that lead to JAK2/STAT/MAPK activation, which ultimately promotes cell proliferation. Phosphorylation of HER2 protein is a crucial step in the activation of its downstream signaling molecules such as Ras/MAPK cascade.
Immunoprecipitation experiments confirm the role of hPRL and G129R in regulation of phosphorylation of HER2 in multiple breast cancer cell lines. A panel of breast cancer cell lines with different levels of hPRLR and HER2 are treated with different doses of PRL (from ng/ml to ug/ml to establish a dose response curve) and terminated at the various time points (from 15 min to 24 hr to establish response time course). The optimal stimulatory dose and the response time courses are determined for each cell lines. Anti-HER2 antibody is used to immunoprecipitate HER2 in cell lysates and anti-phospho-HER2 antibody is used (Western blot) to identify the level of phosphorylated Her2 in response to the treatment.

[2] = in vivo
prostate cancer cells = test: TUNEL assay, apoptosis in prostate cancer cells; assay type: cell-based; conditions: two prostate cancer cells, 250 ng, 24 hours
Procedure: as §1
The samples were in duplicate and each sample constituted about 2 million cells.

[3] = system: STAT5 phosphorylation in T-47D human breast cancer cells; test: hPRL induction of tyrosine phosphorylation of STAT5 protein; assay type: cell-based
Description: Assay of hPRL induction of tyrosine phosphorylation of STAT5 protein. […] Tyrosyl phosphorylation of STAT 5 is a receptor mediated event and is thought to be an important step in ligand-induced signal transduction (Wakao et al., EMBO J., 13:2182-2191 (1994); Kazansky et al., Mol. Endocrinol., 9:1598-1609 (1995); Waxman et al., J. Biol. Chem., 270:13262-13270 (1995)). This assay was used to evaluate the ability of hPRL and hPRLA to inhibit induction of STAT 5 phosphorylation by wild type PRL.
Briefly, human breast cancer cells were plated in 12-well plates. After pre-incubation in serum-free DMEM for 2-3 hours, the cells were exposed to various concentration of hPRL and hPRLA in serum-free DMEM. […]

[4] = system: Stat5a/b phosphorylation in T-47D cells; test: Inhibition of phosphorylation of Stat5a/b, Western blot; assay type: cell-based, human; conditions: 48 hours, 10 μg, in the presence of hPRL 100 ng/ml (FIG. 6)
Procedure: FIG. 6. […] T-47D cells were cultured overnight at 60% confluency and were maintained in phenol red-free and serum-free RPMI-1640 for 72 hours before stimulation. […] Lane A is the control cells that are untreated. […] Activation of Stat5 was analyzed by WB with anti-phospho-specific antibodies in 50 μg protein extracts.

T-47D cells = test: Cell proliferation, ViaCount reagent and Guava PCA cytometer (viable cells); assay type: cell-based, human; conditions: 24 hours of treatment, G129R 1 μg/ml, HERCEPTIN 20 μg/ml (FIG. 3)
Procedure: FIG. 3. […] The y-axis represents percent viable cells after each treatment.
This assay permits the determination of the number of total and viable cells in cultures. Cell proliferation was determined as a measure of the number of viable cells after 24 hours of treatment (FIG. 3).

[5] = Preclinical safety in animals; assay type: in vivo; conditions: mice and rabbits, even at high doses
Description: Previously, the inventors developed a hPRLR antagonist, G129R. G129R is prolactin with a single amino acid substation; the glycine at position 129 of the native sequence is replaced with an arginine. G129R has anti-tumor effects in cultured human breast cancer cells and in nude mouse models.

CC/C(=C(\c1ccccc1)c1ccc(OCCN(C)C)cc1)c1ccccc1 [tamoxifen, reference compound]
proliferation of T47D cells relative to untreated control cultures (T47D cells): comparable inhibitory effect

CC/C(=C(\c1ccc(O)cc1)c1ccc(OCCN(C)C)cc1)c1ccccc1 [4-OH-Tamoxifen, reference compound]
apoptosis, DNA fragmentation ([1]; T-47D, MCF-7 or BT-474 cells, concentration as high as 1 μM): did not induce apoptosis

estrogen [reference compound]
proliferation of T47D cells relative to untreated control cultures (T47D cells): increased proliferation

B1: G129R: hPRLR antagonist: prolactin in which the glycine at position 129 of the native sequence is replaced with an arginine (protein)
chain: LPICPGGAARCQVTLRDLFDRAVVLSHYIHNLSSEMFSEFDKRYTHGRGFITKAINSCHTSSLATPEDKEQAQQMNQKDFLSLIVSILRSWNEPLYHLVTEVRGMQEAPEAILSKAVEIEEQTKRLLERMELIVSQVHPETKENEIYPVWSGLPSLQMADEESRLSAYYNLLHCLRRDSHKIDNYLKLLKCRIIHNNNC
phosphorylation of HER2 (HER2): able to specifically block HER2 phosphorylation
apoptosis, DNA fragmentation ([1]; 250 ng, 24 hours treatment, all four PRLR positive breast cancer cell lines): induced apoptosis
DNA fragmentation in breast cancer cells ([1]; after 2 hours of treatment, 50 ng/ml): apparent
half-life [2]: 1 to 2 h
apoptosis detected by TUNEL assay (prostate cancer cells): underwent apoptosis
block of hPRL-induced phosphorylation of STAT5 proteins [3]: able to block the signal transduction induced by hPRL
proliferation of T47D cells relative to untreated control cultures (T47D cells): comparable inhibitory effect
inhibition of Stat5a/b phosphorylation [4]: inhibitory effect
decrease in proliferative ability / cell number compared to untreated control cells (T-47D cells): 21.5%
safety in animals [5]: safe

B2: hPRL: human prolactin, wild type hormone, used as positive control and stimulus (protein)
chain: LPICPGGAARCQVTLRDLFDRAVVLSHYIHNLSSEMFSEFDKRYTHGRGFITKAINSCHTSSLATPEDKEQAQQMNQKDFLSLIVSILRSWNEPLYHLVTEVRGMQEAPEAILSKAVEIEEQTKRLLEGMELIVSQVHPETKENEIYPVWSGLPSLQMADEESRLSAYYNLLHCLRRDSHKIDNYLKLLKCRIIHNNNC
phosphorylation of HER2 (HER2): able to phosphorylate HER2
proliferation of T47D cells relative to untreated control cultures (T47D cells): increased proliferation
